Columns and labels:
[1] = biological target: T1, NanR (Escherichia coli K12) (UniProt P0A8W0); test: EMSA; details: 10 nM DNA, EMSA: 10 mM MOPS pH 7.5, 50 mM KCl, 5 mM MgCl2, 10% glycerol, 30 min at room temperature, gel at 4 C, fluorescence AUC: 20 mM Tris-HCl pH 8.0, 150 mM NaCl …
T1 sequence: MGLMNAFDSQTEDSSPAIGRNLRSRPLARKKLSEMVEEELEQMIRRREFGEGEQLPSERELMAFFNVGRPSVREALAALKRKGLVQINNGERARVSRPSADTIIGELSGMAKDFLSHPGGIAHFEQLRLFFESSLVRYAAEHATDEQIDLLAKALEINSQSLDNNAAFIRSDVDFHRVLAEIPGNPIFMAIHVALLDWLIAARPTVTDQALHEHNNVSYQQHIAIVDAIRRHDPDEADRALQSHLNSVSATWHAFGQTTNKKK

[2] = biological target: T1, NanR (Escherichia coli K12); test: fluorescence-detected AUC; details: 80 nM DNA, EMSA: 10 mM MOPS pH 7.5, 50 mM KCl, 5 mM MgCl2, 10% glycerol, 30 min at room temperature, gel at 4 C, fluorescence AUC: 20 mM Tris-HCl pH 8.0, 150 mM NaCl …

Substance | Kd ([1]; Hill n = 2.8 ± 0.3, two complexes) [nM] | Kd ([2]; 20 mM Neu5Ac, Hill n = 2.0 ± 0.6) [nM] | Kd ([2]; Hill n = 1.9 ± 0.2, no Neu5Ac) [nM] | Kd ([1]; Hill n = 2.0 ± 0.2, apparent KD) [nM]
(GGTATA)2-repeat, FAM | 25 |  |  | 
(GGTATA)3-repeat operator, FAM |  | 578 | 20 | 39
